Experimental data: patent US20150344571A1 (KANGWON NATIONAL UNIVERSITY UNIVERSITY INDUSTRY COOPERATION …, published 2015)

Tests used:
[1] = target: T1, mouse L1CAM (purified extracellular domain with S1 tag) (mouse, UniProt P11627 20-1123); experiment: competitive ELISA with mouse L1CAM
T1 construct: extracellular domain; also called mouse L1CAM monomer; not shown: S1 tag from the pJEX2T vector

[2] = target: T2, human L1CAM (purified extracellular domain) (human, UniProt P32004 20-1112); experiment: Octet RED (called SPR in the filing), antibody on AHC sensor, soluble human L1CAM
T2 construct: range 1-1112; Expressed in HEK293T from pJK-dhfr2-L1-monomer; The stated range 1-1112 begins at residue 1 of the precursor; no signal peptide limits are stated; also called human L1CAM antigen
Method: (§1) In addition to the competitive ELISA, SPR (surface […] resonance) was measured using Octet RED (ForteBio, USA) according to the manufacturer's protocol to determine the affinities of Ab417 antibody and Ab4M antibody for human and mouse L1CAM. […] AHC (anti-human IgG Fc capture) sensor chip was used to analyze binding kinetics of the antibodies to antigens by examining changes in refractive index which occurs upon association and dissociation of antibody and antigen while transferring the sensor chip to PBS solution, antibody, PBS solution, antigen, and PBS solution in this order.

[3] = target: T2, human L1CAM (purified extracellular …); experiment: competitive ELISA
Method: (§2) The affinities of the purified antibodies for human L1CAM were measured by competitive ELISA. Human L1CAM was prepared at a density of 1×10⁻⁶ M and serially diluted to 1×10⁻¹¹ M using a PBS buffer solution. Respective antibodies were prepared by diluting them in PBS buffer solution at particular concentrations according to their binding capacity. The antigens and antibodies thus diluted were reacted with each other at the same volume ratio, and allowed to react at room temperature for 2 hours.
(§3) 96-well plates (MaxiSorp, Nunc) were coated using the purified human L1CAM which were diluted in a buffer solution (15 mM Na₂CO₃, 34.84 mM NaHCO₃, pH 9.6) at a concentration of 100 ng/well, at 4° C. overnight. Next day, the wells were washed with 0.05% PBS-T buffer solution twice. Difco skim milk (BD) was dissolved in 0.05% PBS-T buffer solution at a concentration of 2%, and 200 μl thereof was added to each well, followed by incubation at room temperature for 1 hour. Then, the wells were washed with 0.05% PBS-T buffer solution twice. To the plate, 100 it of the antigen/antibody reactant that were reacted for 2 hours was added and allowed to react at room temperature for 1 hour. Then, the wells were washed with 0.05% PBS-T buffer solution three times to remove non-antigen bound antibodies. Goat anti-human IgG(Fc)-HRP (Pierce, 1/5000) that specifically recognizes the Fc region of human antibody was added as a secondary antibody, and allowed to react at room temperature for 1 hour. Then, the wells were washed with 0.05% PBS-T buffer solution four times to remove the remaining secondary antibodies. […] Then, 50 μl of 2.5 M H₂SO₄ solution was added to each well to terminate the enzymatic reaction. After terminating the reaction, absorbance was measured at 450 nm (VERSAmax microplate reader, Molecular Devices).
Affinity of the purified Ab417 antibody for human L1CAM was measured by competitive ELISA in the same manner as in Example 3-2.

[4] = target: T2, human L1CAM (purified extracellular …); experiment: competitive ELISA (soluble human L1CAM against coated human L1CAM)
Method: as §2, §3

[5] = target: T1, mouse L1CAM (purified extracellular …); experiment: Octet RED (called SPR in the filing), antibody on AHC sensor, soluble mouse L1CAM
Method: as §1

[6] = target: T1, mouse L1CAM (purified extracellular …); experiment: Octet RED, antibody on AHC sensor, soluble mouse L1CAM
Method: (§4) Affinities of Ab417, Ab417-H6L2 mutant, and Ab417-H6L6 mutant for human and mouse L1CAM were examined using Octet RED (fortebio). […] Each 200 it thereof was added to opaque 96-well plate to prevent light transmission. AHC (anti-human IgG Fc capture) sensor chip was used to analyze binding kinetics of the antibodies to antigens by examining changes in refractive index which occurs upon association and dissociation of antibody and antigen while transferring the sensor chip to PBS solution, antibody, PBS solution, antigen, and PBS solution in this order.
(§5) Despite amino acid substitution, there were no changes in the affinities of these antibodies (Table 4), and there were also no changes in the affinities of these antibodies for mouse L1CAM (Table 5).

[7] = target: T2, human L1CAM (purified extracellular …); experiment: Octet RED, antibody on AHC sensor, soluble human L1CAM
Method: as §4, §5

[8] = target: T1, mouse L1CAM (purified extracellular …); experiment: indirect ELISA on coated mouse L1CAM, mutant IgG in culture supernatant, relative to Ab4
Text: The expression vectors of respective mutants were obtained in a large amount, and transfected to human embryonic kidney HEK293T cells using Lipofectamine 2000 (invitrogen), followed by culture. The transfected cells produce and secrete whole antibodies out of the cells, and the culture supernatants were collected and subjected to indirect ELISA as follows. 96-well plates (MaxiSorp, Nunc) were coated using the purified extracellular domain of human L1CAM (hereinafter, referred to as ‘human L1CAM’) and the extracellular domain of purified mouse L1CAM (hereinafter, referred to as ‘mouse L1CAM’) as antigens, which were diluted in a buffer solution (15 mM Na₂CO₃, 34.84 mM NaHCO₃, pH 9.6) at a concentration of 100 ng/well, at 4° C. overnight. Next day, the plate was washed with 0.05% PBS-T buffer solution twice. Difco skim milk (BD) was dissolved in 0.05% PBS-T buffer solution at a concentration of 2%, and 200 μl thereof was added to each well, followed by incubation at 37° C. for 1 hour. Then, the wells were washed with 0.05% PBS-T buffer solution twice. To the plate, 100 μl of the supernatant was added and allowed to react at 37° C. for 1 hour. Then, the wells were washed with 0.05% PBS-T buffer solution three times to remove non-antigen bound antibodies. Goat anti-human IgG(Fc)-HRP (Pierce, 1/5000) that specifically recognizes the Fc region of human antibody was added as a secondary antibody, and allowed to react at 37° C. for 1 hour. Then, the wells were washed with 0.05% PBS-T buffer solution four times to remove the remaining secondary antibodies.
Then, 50 μl of 2.5 M H₂SO₄ solution was added to each well to terminate the enzymatic reaction. After terminating the reaction, absorbance was measured at 450 nm (VERSAmax microplate reader, Molecular Devices).

T2 sequence (P32004 20-1112 limits assumed, form in doubt): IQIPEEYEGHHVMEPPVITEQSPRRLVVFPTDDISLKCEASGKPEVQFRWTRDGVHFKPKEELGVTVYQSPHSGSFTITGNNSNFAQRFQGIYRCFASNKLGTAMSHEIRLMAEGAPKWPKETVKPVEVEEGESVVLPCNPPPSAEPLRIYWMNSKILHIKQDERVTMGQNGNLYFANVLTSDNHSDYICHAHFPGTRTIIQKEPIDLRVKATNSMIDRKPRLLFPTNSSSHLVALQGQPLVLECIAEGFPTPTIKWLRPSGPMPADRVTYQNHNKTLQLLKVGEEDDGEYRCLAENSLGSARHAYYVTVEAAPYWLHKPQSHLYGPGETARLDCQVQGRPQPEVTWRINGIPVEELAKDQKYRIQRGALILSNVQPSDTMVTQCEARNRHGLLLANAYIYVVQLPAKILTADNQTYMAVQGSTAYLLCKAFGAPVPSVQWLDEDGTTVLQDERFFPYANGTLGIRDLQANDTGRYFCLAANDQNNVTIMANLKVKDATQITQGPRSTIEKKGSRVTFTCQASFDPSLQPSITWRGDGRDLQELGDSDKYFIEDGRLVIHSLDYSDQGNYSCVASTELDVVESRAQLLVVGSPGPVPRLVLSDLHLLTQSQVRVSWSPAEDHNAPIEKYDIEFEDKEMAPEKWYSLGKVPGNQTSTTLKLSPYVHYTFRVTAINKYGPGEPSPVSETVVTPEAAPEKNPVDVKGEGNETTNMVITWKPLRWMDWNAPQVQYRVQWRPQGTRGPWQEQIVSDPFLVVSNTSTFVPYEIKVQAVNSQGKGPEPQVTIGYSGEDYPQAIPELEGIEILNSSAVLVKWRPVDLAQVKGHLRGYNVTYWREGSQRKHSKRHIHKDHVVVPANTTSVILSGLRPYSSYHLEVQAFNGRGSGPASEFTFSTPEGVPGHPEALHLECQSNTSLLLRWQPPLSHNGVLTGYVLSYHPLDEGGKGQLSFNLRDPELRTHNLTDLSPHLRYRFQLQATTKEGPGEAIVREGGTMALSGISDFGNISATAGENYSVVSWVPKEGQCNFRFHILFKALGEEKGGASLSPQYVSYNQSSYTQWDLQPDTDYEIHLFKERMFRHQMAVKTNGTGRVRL
T1 sequence (P11627 20-1123): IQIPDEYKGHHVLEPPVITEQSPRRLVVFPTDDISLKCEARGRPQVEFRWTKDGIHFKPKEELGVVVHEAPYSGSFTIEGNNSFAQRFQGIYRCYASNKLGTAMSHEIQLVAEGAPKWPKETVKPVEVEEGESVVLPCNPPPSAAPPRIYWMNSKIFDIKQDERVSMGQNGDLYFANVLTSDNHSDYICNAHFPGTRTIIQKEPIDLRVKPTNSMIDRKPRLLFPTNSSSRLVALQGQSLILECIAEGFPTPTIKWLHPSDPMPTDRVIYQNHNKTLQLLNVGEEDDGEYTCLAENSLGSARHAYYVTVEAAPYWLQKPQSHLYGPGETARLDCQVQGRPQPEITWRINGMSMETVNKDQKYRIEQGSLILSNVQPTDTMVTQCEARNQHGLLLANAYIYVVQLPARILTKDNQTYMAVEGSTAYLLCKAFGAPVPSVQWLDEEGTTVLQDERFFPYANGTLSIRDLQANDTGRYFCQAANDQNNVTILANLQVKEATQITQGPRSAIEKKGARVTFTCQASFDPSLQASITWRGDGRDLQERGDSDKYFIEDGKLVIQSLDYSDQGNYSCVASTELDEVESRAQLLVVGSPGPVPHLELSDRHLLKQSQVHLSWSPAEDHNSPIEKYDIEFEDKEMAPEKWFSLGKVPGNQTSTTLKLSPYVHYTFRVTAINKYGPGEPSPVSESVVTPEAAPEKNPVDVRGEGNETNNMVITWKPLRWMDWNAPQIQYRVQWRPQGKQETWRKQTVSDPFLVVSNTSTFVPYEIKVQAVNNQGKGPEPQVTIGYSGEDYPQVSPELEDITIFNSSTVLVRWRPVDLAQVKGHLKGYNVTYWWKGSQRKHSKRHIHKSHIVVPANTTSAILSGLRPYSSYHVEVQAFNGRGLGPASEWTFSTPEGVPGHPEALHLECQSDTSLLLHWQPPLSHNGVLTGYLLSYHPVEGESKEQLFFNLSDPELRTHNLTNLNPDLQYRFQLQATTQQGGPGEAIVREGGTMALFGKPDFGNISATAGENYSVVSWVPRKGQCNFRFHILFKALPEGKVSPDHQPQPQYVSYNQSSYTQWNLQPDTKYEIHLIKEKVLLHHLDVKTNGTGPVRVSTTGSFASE

B1: Ab4M antibody (antibody, IgG1, V domains shown)
VH: EVQLVESGGGVVQPGRSLRLSCAASGFTFSRFGMHWVRQAPGKGLEWVAFISNDGSNKYYADSVKGRFTISRDNSKNTLYLQMNSLRPEDTAVYYCARGRAYGSGSLFDPWGQGTLVTVSS
VL: DIQLTQSPSSLSASVGDRVTITCRASRTISIYVNWYRQRPGKAPESLIYAASNLHSGVPSRFSGSGSGTDFTLTISSLQPEDFATYYCQQTHATRQYTFGQGTKLEIK
notes: Ab4 with V50F and H97A in VH and V75I, G84A and D93A in VK; Whole IgG (IgG1 vector pdCMV-dhfrC-Ab4M)
[1]
  Kd: 0.22 nM
  fold higher affinity than Ab4: ~8 fold
[2]
  Kd: 0.33 nM
  koff: 4.3e-05 s⁻¹
  kon: 130000 M⁻¹ s⁻¹
[3]
  fold higher affinity than Ab4: ~45 fold
[4]
  Kd: 2.9 nM
[5]
  Kd: 0.0893 nM
  koff: 2.22e-05 s⁻¹
  kon: 249000 M⁻¹ s⁻¹

B2: Ab417-H6L6 antibody (antibody, V domains shown)
VH: EVQLVESGGGVVQPGGSLRLSCAASGFTFSRFGMHWVRQAPGKGLEWVAFISNEGSNKYYADSVKGRFTISRDNSANTLYLQMNSLRAEDTAVYYCARGRAYGSGSLFDPWGQGTLVTVSS
VL: DIQLTQSPSSLSASVGDRVTITCRASRTISSYVNWYQQKPGQAPESLIYAASNLHSGVPSRFSGSGSGTDFTLTISSLQPEDFATYYCQQSIGRGVVTFGQGTKLEIK
notes: L6 is the Ab417 VK with I31S, R37Q, R39K and K42Q; also called Ab417-H6L6 mutant; H6L6 mutant
[6]
  Kd: 0.0984 nM
  koff: 2.11e-05 s⁻¹
  kon: 214000 M⁻¹ s⁻¹
[7]
  Kd: 0.246 nM
  koff: 3.64e-05 s⁻¹
  kon: 148000 M⁻¹ s⁻¹

B3: Ab417-H6L2 antibody (antibody, V domains shown)
VH: EVQLVESGGGVVQPGGSLRLSCAASGFTFSRFGMHWVRQAPGKGLEWVAFISNEGSNKYYADSVKGRFTISRDNSANTLYLQMNSLRAEDTAVYYCARGRAYGSGSLFDPWGQGTLVTVSS
VL: DIQLTQSPSSLSASVGDRVTITCRASRTISSYVNWYRQRPGKAPESLIYAASNLHSGVPSRFSGSGSGTDFTLTISSLQPEDFATYYCQQSIGRGVVTFGQGTKLEIK
notes: H6 is the Ab417 VH with R16G, D54E, K76A and P88A; L2 is the Ab417 VK with I31S; also called Ab417-H6L2 mutant; H6L2 mutant
[6]
  Kd: 0.131 nM
  koff: 2.67e-05 s⁻¹
  kon: 204000 M⁻¹ s⁻¹
[7]
  Kd: 0.22 nM
  koff: 3.22e-05 s⁻¹
  kon: 146000 M⁻¹ s⁻¹

B4: H97A mutant of Ab4 antibody (antibody, IgG1, name in Kabat numbering, V domains shown)
VH: EVQLVESGGGVVQPGRSLRLSCAASGFTFSRFGMHWVRQAPGKGLEWVAVISNDGSNKYYADSVKGRFTISRDNSKNTLYLQMNSLRPEDTAVYYCARGRAYGSGSLFDPWGQGTLVTVSS
VL: DIQLTQSPSSLSASVGDRVTITCRASRTISIYVNWYRQRPGKAPESLIYAASNLHSGVPSRFSGSGSGTDFTLTVSSLQPEDFGTYYCQQTHDTRQYTFGQGTKLEIK
notes: Whole IgG made in the pdCMV-dhfrC-Ab4 vector (IgG1); also called VH H97A mutant of Ab4
[4]
  Kd: 29 nM

B5: R96A (antibody, V domains shown)
VH: EVQLVESGGGVVQPGRSLRLSCAASGFTFSRFGMHWVRQAPGKGLEWVAVISNDGSNKYYADSVKGRFTISRDNSKNTLYLQMNSLRPEDTAVYYCARGAHYGSGSLFDPWGQGTLVTVSS
VL: DIQLTQSPSSLSASVGDRVTITCRASRTISIYVNWYRQRPGKAPESLIYAASNLHSGVPSRFSGSGSGTDFTLTVSSLQPEDFGTYYCQQTHDTRQYTFGQGTKLEIK
notes: whole IgG; also called Ab4 VH R96A (HCDR3 alanine mutant); copies: 2 + 2
[8]
  binding result: no binding

B6: D93A mutant of Ab4 antibody (antibody, IgG1, V domains shown)
VH: EVQLVESGGGVVQPGRSLRLSCAASGFTFSRFGMHWVRQAPGKGLEWVAVISNDGSNKYYADSVKGRFTISRDNSKNTLYLQMNSLRPEDTAVYYCARGRHYGSGSLFDPWGQGTLVTVSS
VL: DIQLTQSPSSLSASVGDRVTITCRASRTISIYVNWYRQRPGKAPESLIYAASNLHSGVPSRFSGSGSGTDFTLTVSSLQPEDFGTYYCQQTHATRQYTFGQGTKLEIK
notes: Whole IgG made in the pdCMV-dhfrC-Ab4 vector (IgG1); also called VK D93A mutant
[4]
  Kd: 30 nM

B7: V50F/H97A mutant of Ab4 antibody (antibody, name in Kabat numbering, V domains shown)
VH: EVQLVESGGGVVQPGRSLRLSCAASGFTFSRFGMHWVRQAPGKGLEWVAFISNDGSNKYYADSVKGRFTISRDNSKNTLYLQMNSLRPEDTAVYYCARGRAYGSGSLFDPWGQGTLVTVSS
VL: DIQLTQSPSSLSASVGDRVTITCRASRTISIYVNWYRQRPGKAPESLIYAASNLHSGVPSRFSGSGSGTDFTLTVSSLQPEDFGTYYCQQTHDTRQYTFGQGTKLEIK
notes: also called VH V50F/H97A mutant
[4]
  Kd: 18 nM

B8: Y98A (antibody, V domains shown)
VH: EVQLVESGGGVVQPGRSLRLSCAASGFTFSRFGMHWVRQAPGKGLEWVAVISNDGSNKYYADSVKGRFTISRDNSKNTLYLQMNSLRPEDTAVYYCARGRHAGSGSLFDPWGQGTLVTVSS
VL: DIQLTQSPSSLSASVGDRVTITCRASRTISIYVNWYRQRPGKAPESLIYAASNLHSGVPSRFSGSGSGTDFTLTVSSLQPEDFGTYYCQQTHDTRQYTFGQGTKLEIK
notes: whole IgG; also called Ab4 VH Y98A (HCDR3 alanine mutant); copies: 2 + 2
[8]
  binding result: no binding

B9: G99A (antibody, V domains shown)
VH: EVQLVESGGGVVQPGRSLRLSCAASGFTFSRFGMHWVRQAPGKGLEWVAVISNDGSNKYYADSVKGRFTISRDNSKNTLYLQMNSLRPEDTAVYYCARGRHYASGSLFDPWGQGTLVTVSS
VL: DIQLTQSPSSLSASVGDRVTITCRASRTISIYVNWYRQRPGKAPESLIYAASNLHSGVPSRFSGSGSGTDFTLTVSSLQPEDFGTYYCQQTHDTRQYTFGQGTKLEIK
notes: whole IgG; also called Ab4 VH G99A (HCDR3 alanine mutant); copies: 2 + 2
[8]
  binding result: no binding
